We go through 94 variants from the supplement of paper PMC10567573.

B1: TMEM175 (parent)
chain: ALLHQAETLQPSVWFGGREHVLMF
B2: ZNF649 (parent)
chain: LTEHKRIHTGKKPHVCSLCGKAFY
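Also: lentivirally expressed fusions sorted by FACS into six bins by GFP to DsRed ratio, PSI derived from sequencing read proportions per bin multiplied by bin number.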

The variants in one data set derive from B1. The data set can be described thus: protein stability index of a GFP-peptide fusion (GPS, HEK-293T) (PSI 1-6); higher = more stable. The settings on record: c terminus: a fixed tail appended.
For ALLHQAETLQPSVWFGGREIVLMF [H20I], the protein stability index was 2.97.

Turning to ALLHQAETLQPSVWFNGREHVLMF [G16N], the protein stability index was determined as 2.41.

ALLHQAETLQPSVWFGGREHALMF [V21A]: the protein stability index worked out at 1.42.

ALLHQAETLQPSVWFGGREHSLMF [V21S]: the protein stability index was found to be 1.52.

For the variant AILHQAETLQPSVWFGGREHVLMF [L2I], the protein stability index worked out at 3.26.

Turning to ALLHQAETLQPSVWFGEREHVLMF [G17E], the protein stability index was found to be 1.

Regarding ALLHQAETLQPSLWFGGREHVLMF [V13L], the protein stability index is 2.59.

Variants of B2 are the subject of the next data set. The data set is described as above. The note with it: c terminus: a fixed tail appended.
In the case of LTKHKRIHTGKKPHVCSLCGKAFY [E3K], the protein stability index came to 2.93.

On to LTAHKRIHTGKKPHVCSLCGKAFY [E3A], for which the protein stability index was determined as 2.47.

On to LTHHKRIHTGKKPHVCSLCGKAFY [E3H], for which the protein stability index turned out to be 1.68.

Regarding LTYHKRIHTGKKPHVCSLCGKAFY [E3Y], the protein stability index was 2.89.

Turning to LTTHKRIHTGKKPHVCSLCGKAFY [E3T], the protein stability index is 1.67.

For the variant LTCHKRIHTGKKPHVCSLCGKAFY [E3C], the protein stability index is 2.38.

As for LTSHKRIHTGKKPHVCSLCGKAFY [E3S], the protein stability index came to 2.59.

Consider LTGHKRIHTGKKPHVCSLCGKAFY [E3G], for which the protein stability index amounted to 1.79.

As to LTQHKRIHTGKKPHVCSLCGKAFY [E3Q], the protein stability index was 2.32.

With LTEHKRIHTGKMPHVCSLCGKAFY [K12M], the protein stability index was found to be 2.28.

Take LTEHKRIHTGKQPHVCSLCGKAFY [K12Q]: the protein stability index came out at 2.39.

Regarding LTEHKRIHTGKPPHVCSLCGKAFY [K12P], the protein stability index stood at 2.31.

Consider LTEHKRIHTGKVPHVCSLCGKAFY [K12V], for which the protein stability index is 3.42.

Regarding LTEHKRIHTGKLPHVCSLCGKAFY [K12L], the protein stability index turned out to be 2.5.

Turning to LTEHKRIHTGKSPHVCSLCGKAFY [K12S], the protein stability index came out at 1.78.

On to LTEHKRIHTGKIPHVCSLCGKAFY [K12I], for which the protein stability index was 2.5.

As for LTEHKRIHTGKCPHVCSLCGKAFY [K12C], the protein stability index worked out at 2.81.

With LTEHKRIHTGKKPHECSLCGKAFY [V15E], the protein stability index came to 2.56.

For LTEHKRIHTGKKPHFCSLCGKAFY [V15F], the protein stability index is 2.42.

As to LTEHKRIHTGKKPHSCSLCGKAFY [V15S], the protein stability index was 2.23.

Consider LTEHKRIHTGKKPHPCSLCGKAFY [V15P], for which the protein stability index worked out at 2.71.

With LTEHKRIHTGKKPHCCSLCGKAFY [V15C], the protein stability index amounted to 2.6.

As to LTEHKRIHTGKKPHYCSLCGKAFY [V15Y], the protein stability index worked out at 2.55.

As for LTEHKRIHTGKKPHNCSLCGKAFY [V15N], the protein stability index stood at 2.05.

Take LTEHKRIHTGKKPHGCSLCGKAFY [V15G]: the protein stability index stood at 2.56.

For the variant LTEHKRIHTGKKPHVCSLCGYAFY [K21Y], the protein stability index was determined as 1.79.

On to LTEHKRIHTGKKPHVCSLCGDAFY [K21D], for which the protein stability index turned out to be 2.72.

On to LTEHKRIHTGKKPHVCSLCGEAFY [K21E], for which the protein stability index was determined as 2.67.

For LTEHKRIHTGKKPHVCSLCGIAFY [K21I], the protein stability index came out at 2.11.

Turning to LTEHKRIHTGKKPHVCSLCGMAFY [K21M], the protein stability index was 1.98.

LTEHKRIHQGKKPHVCSLCGKAFY [T9Q]: the protein stability index was found to be 2.31.

As for LTEHKRIHWGKKPHVCSLCGKAFY [T9W], the protein stability index was 3.49.

With LTEHKRIHIGKKPHVCSLCGKAFY [T9I], the protein stability index came out at 1.87.

LTEHKRIHDGKKPHVCSLCGKAFY [T9D]: the protein stability index turned out to be 3.3.

Take LTEHKRIHMGKKPHVCSLCGKAFY [T9M]: the protein stability index worked out at 2.85.

Regarding LTEHKRIHEGKKPHVCSLCGKAFY [T9E], the protein stability index amounted to 2.98.

Regarding LTERKRIHTGKKPHVCSLCGKAFY [H4R], the protein stability index was determined as 2.24.

On to LTETKRIHTGKKPHVCSLCGKAFY [H4T], for which the protein stability index amounted to 2.52.

Take LTEDKRIHTGKKPHVCSLCGKAFY [H4D]: the protein stability index was found to be 2.9.

For the variant LTESKRIHTGKKPHVCSLCGKAFY [H4S], the protein stability index was found to be 2.58.

Regarding LTEPKRIHTGKKPHVCSLCGKAFY [H4P], the protein stability index was found to be 2.43.

For LTEVKRIHTGKKPHVCSLCGKAFY [H4V], the protein stability index came out at 1.94.

On to LTEHKRIHTGKKPHVCSLCGKIFY [A22I], for which the protein stability index was found to be 2.62.

Turning to LTEHKRIHTGKKPHVCSLCGKWFY [A22W], the protein stability index turned out to be 2.48.

Consider LTEHKRIHTGKKPHVCSLCGKLFY [A22L], for which the protein stability index is 2.27.

On to LTEHKRIHTGKKPHVCSLCGKGFY [A22G], for which the protein stability index came out at 2.56.

On to LTEHKRIHTGKKPHVCSLCGKPFY [A22P], for which the protein stability index is 2.9.

On to LTEHKRIHTGKKPHVCSLCGKEFY [A22E], for which the protein stability index came to 2.24.

Take LTEHKRIHTGKKPHVCSLCGKMFY [A22M]: the protein stability index amounted to 2.85.

LTEHKRIHTGKKPHVCSLCGKKFY [A22K]: the protein stability index was 3.71.

LTEHKRIHTGKKPHVCSLCGKFFY [A22F]: the protein stability index was 2.16.

In the case of LTEHKRIHTGKKPHVCSLCGKHFY [A22H], the protein stability index worked out at 2.46.

Turning to LTEHKRIPTGKKPHVCSLCGKAFY [H8P], the protein stability index turned out to be 4.21.

As for LTEHKRICTGKKPHVCSLCGKAFY [H8C], the protein stability index was 3.2.

LTEHKRIKTGKKPHVCSLCGKAFY [H8K]: the protein stability index was 2.14.

For LTEHKRIGTGKKPHVCSLCGKAFY [H8G], the protein stability index is 2.13.

Consider LTEHKRIQTGKKPHVCSLCGKAFY [H8Q], for which the protein stability index was determined as 3.1.

LTEHKRIRTGKKPHVCSLCGKAFY [H8R]: the protein stability index turned out to be 4.2.

As to LTEHKRIFTGKKPHVCSLCGKAFY [H8F], the protein stability index was found to be 2.71.

Turning to LTEHKRIWTGKKPHVCSLCGKAFY [H8W], the protein stability index was determined as 2.06.

Turning to LTEHKRIDTGKKPHVCSLCGKAFY [H8D], the protein stability index came to 2.67.

Regarding LTEHKRIVTGKKPHVCSLCGKAFY [H8V], the protein stability index was determined as 2.18.

As to LMEHKRIHTGKKPHVCSLCGKAFY [T2M], the protein stability index was 2.16.

As for LAEHKRIHTGKKPHVCSLCGKAFY [T2A], the protein stability index is 2.57.

As to LSEHKRIHTGKKPHVCSLCGKAFY [T2S], the protein stability index is 3.

In the case of LFEHKRIHTGKKPHVCSLCGKAFY [T2F], the protein stability index was determined as 1.7.

In the case of LVEHKRIHTGKKPHVCSLCGKAFY [T2V], the protein stability index came out at 2.27.

For the variant LDEHKRIHTGKKPHVCSLCGKAFY [T2D], the protein stability index came to 3.12.

With LQEHKRIHTGKKPHVCSLCGKAFY [T2Q], the protein stability index was 2.58.

As for LTEHKKIHTGKKPHVCSLCGKAFY [R6K], the protein stability index stood at 2.33.

Take LTEHKIIHTGKKPHVCSLCGKAFY [R6I]: the protein stability index came out at 2.71.

For LTEHKLIHTGKKPHVCSLCGKAFY [R6L], the protein stability index came out at 2.14.

As to LTEHKEIHTGKKPHVCSLCGKAFY [R6E], the protein stability index worked out at 3.42.

On to LTEHKTIHTGKKPHVCSLCGKAFY [R6T], for which the protein stability index was determined as 3.08.

LTEHKRIHTGKKPHVCSICGKAFY [L18I]: the protein stability index turned out to be 2.23.

On to LTEHKRIHTGKKPHVCSGCGKAFY [L18G], for which the protein stability index came to 2.82.

As for LTEHKRIHTGKKPHVCSQCGKAFY [L18Q], the protein stability index turned out to be 2.9.

For LTEHKRIHTGKKPHVCSHCGKAFY [L18H], the protein stability index is 3.13.

In the case of LTEHKRIHTGKKPHVCSMCGKAFY [L18M], the protein stability index was 3.36.

Regarding LTEHKRIHTGKKPHVCSACGKAFY [L18A], the protein stability index was 1.97.

Regarding LTEHKRIHTGKKPHVCSNCGKAFY [L18N], the protein stability index stood at 5.08.

Consider LTEHKRIHTGKKPHVCSSCGKAFY [L18S], for which the protein stability index is 2.89.

On to LTEHKRIHTGKKPHVCSLCGKAQY [F23Q], for which the protein stability index stood at 2.3.

In the case of LTEHKRIHTGKKPHVCSLCGKAIY [F23I], the protein stability index was 2.45.

LTEHKRIHTGKKPHVCSLCGKAKY [F23K]: the protein stability index came out at 3.87.

With LTEHKRIHTGKKPHVCSLCGKACY [F23C], the protein stability index worked out at 3.07.

Take LTEHKRIHTGKKPHVCSLCGKASY [F23S]: the protein stability index amounted to 2.97.
